Residue numbers refer to the chain shown, from its start.
Columns and labels:
Human Id1: Histidine [1] = target: T1, Human Id1: Histidine (human, UniProt P41134 1-155, limits assumed); experiment: ELISA, Ab 0.010 µg/ml
T1 construct: Fusion protein made in E. coli from vector pGW07; also called h-Id1: his; not shown: His tag
T1 sequence (looked up): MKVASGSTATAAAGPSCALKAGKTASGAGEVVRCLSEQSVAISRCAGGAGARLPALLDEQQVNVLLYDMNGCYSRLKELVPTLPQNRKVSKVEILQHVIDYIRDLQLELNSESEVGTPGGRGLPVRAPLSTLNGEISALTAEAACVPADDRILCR

Mouse Id2: Histidine [2] = target: T2, Mouse Id2: Histidine (mouse, UniProt P41136 1-134, limits assumed); experiment: ELISA, Ab 0.010 µg/ml
T2 construct: Fusion protein made in E. coli from vector pGW07; also called m-Id2: His; not shown: His tag
T2 sequence (looked up): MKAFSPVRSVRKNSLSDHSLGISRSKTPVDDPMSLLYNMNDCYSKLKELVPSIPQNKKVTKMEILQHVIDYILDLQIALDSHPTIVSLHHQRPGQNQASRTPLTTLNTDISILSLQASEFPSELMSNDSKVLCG

Human Id2: Histidine [3] = target: T3, Human Id2: Histidine (human, UniProt Q02363 1-134, limits assumed); experiment: ELISA, Ab 0.010 µg/ml
T3 construct: Fusion protein made in E. coli from vector pGW07; also called h-Id2: His; not shown: His tag
T3 sequence (looked up): T2 sequence (looked up) with T60S, V131A

Mouse Id3: Histidine [4] = target: T4, Mouse Id3: Histidine (mouse, UniProt P41133 1-119); experiment: ELISA, Ab 0.010 µg/ml
T4 construct: Fusion protein made in E. coli from vector pGW07; also called m-Id3: His; Mouse Id3 (coated wells); not shown: His tag
T4 sequence: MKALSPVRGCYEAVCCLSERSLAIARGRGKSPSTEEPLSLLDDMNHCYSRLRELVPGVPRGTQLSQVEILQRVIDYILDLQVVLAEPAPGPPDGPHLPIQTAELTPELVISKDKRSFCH

Human Id3: Histidine [5] = target: T5, Human Id3: Histidine (human, UniProt Q02535 1-119 at identity 1.00)); experiment: ELISA, Ab 0.010 µg/ml
T5 construct: Fusion protein made in E. coli from vector pGW07; also called h-Id3: His; Human Id3 (coated wells); not shown: His tag
T5 chain: T4 sequence with S31G, S33A, T34A, T105A, K112N

Mouse Id1: Histidine [6] = target: T6, Mouse Id1: Histidine (mouse, UniProt P20067-2 1-148, limits assumed); experiment: ELISA, Ab 0.010 µg/ml
T6 construct: Fusion protein made in E. coli from vector pGW07; also called m-Id1-His; not shown: His tag
T6 sequence (looked up): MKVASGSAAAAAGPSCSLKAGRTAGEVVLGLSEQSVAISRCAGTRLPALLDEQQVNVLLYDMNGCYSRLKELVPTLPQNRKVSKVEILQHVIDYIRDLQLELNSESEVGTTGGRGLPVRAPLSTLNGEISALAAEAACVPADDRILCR

Human Id3: Histidine [7] = target: T5, Human Id3: Histidine; experiment: ELISA, Ab 0.100 µg/ml
Human Id1: Histidine [8] = target: T1, Human Id1: Histidine; experiment: ELISA, Ab 0.250 µg/ml
Mouse Id2: Histidine [9] = target: T2, Mouse Id2: Histidine; experiment: ELISA, Ab 0.250 µg/ml
Human Id2: Histidine [10] = target: T3, Human Id2: Histidine; experiment: ELISA, Ab 0.250 µg/ml
Mouse Id3: Histidine [11] = target: T4, Mouse Id3: Histidine; experiment: ELISA, Ab 0.250 µg/ml
Human Id3: Histidine [12] = target: T5, Human Id3: Histidine; experiment: ELISA, Ab 0.250 µg/ml
Mouse Id1: Histidine [13] = target: T6, Mouse Id1: Histidine; experiment: ELISA, Ab 0.250 µg/ml

B1: rabbit monoclonal anti-mouse/human Id3, clone #BCH-4/#6-1 (antibody, V domains shown)
VH: QSVEESGGRLVTPGTPLTLTCTASGFSLSNVYIHWVRQAPGKGLEWIGYISDGDTARYATWAKGRFTISKTSSTTVNLKMTSLTTEDTATYFCARQGFNIWGPGTLVTVSL
VL: AVLTQTPSPVSAAVGGTVSISCQSSQSVWNNNWLSWFQQKPGQPPKLLIYETSKLESGVPSRFKGSGSGTQFTLTISDVQCDDAATYYCLGGYWTTSDNNVFGGGTEVVVK
notes: Rabbit IgG from a rabbit hybridoma; also called m/h Id3 MoAb 6-1
B1 gave an A450 (Human Id1: Histidine [1]) of 0.078 A450, an A450 (Mouse Id2: Histidine [2]) of 0.071 A450 and an A450 (Human Id2: Histidine [3]) of 0.071 A450. The A450 (Mouse Id3: Histidine [4]) was 0.53 A450, the A450 (Human Id3: Histidine [5]) was 0.48 A450 and the A450 (Mouse Id1: Histidine [6]) was 0.079 A450. For the same binder, the A450 (Human Id3: Histidine [7]) was 1.98 A450, the A450 (Human Id1: Histidine [8]) was 0.061 A450 and the A450 (Mouse Id2: Histidine [9]) was 0.071 A450. It also gave an A450 (Human Id2: Histidine [10]) of 0.071 A450, an A450 (Mouse Id3: Histidine [11]) of 3.13 A450 and an A450 (Human Id3: Histidine [12]) of 2.74 A450. For the same binder, the A450 (Mouse Id1: Histidine [13]) was 0.058 A450.

Reference: patent US20070178531A1 (BIOCHECK, published 2007)
